# Source: patent publication US20200123260A1 (Pfizer, published 2020)
# Numbering of substitutions follows the chain as printed.
# B1: TOA-1 variant VH human v1.1 / VL human v1.0 (antibody, V domains shown)
# VH: EVQLVESGGGLVQPGGSLRLSCATSGYSFTAYFMNWVRQAPGKGLEWVARINPNNGDTFYTQKFKGRFTISVDNAKNSAYLQMNSLRAEDTAVYYCARRDYFGAMDYWGQGTLVTVSS
# VL: DIQMTQSPSSLSASVGDRVTITCRASQTISNNLHWYQQKPGKAPKLLIYSASLAISGVPSRFSGSGSGTDFTLTISSLQPEDFATYYCQQSNSWPNTFGGGTKVEIK
# notes: Human IgG; constant regions not restated; also called hu v1.1 / hu v1.0
# B2: TOA-1 variant VH mouse / VL human v1.0 (antibody, V domains shown)
# VH: EVQLQQSGPELVKPGASMKISCKTSGYSFTAYFMNWVKQSHGKSLEWIGRINPNNGDTFYTQKFKGKATLTVDKSSNTAHMELLSLTSEDSAIYYCGRRDYFGAMDYWGQGTSVTVSS
# VL: B1 VL
# notes: Human IgG from COS-1 conditioned medium; constant regions not restated; also called mu / hu v1.0
# B3: huTOA-1 v1.0/2.0 (antibody, V domains shown)
# VH: B1 VH with T24A, V72R, A79L
# VL: EIVMTQSPATLSVSPGERATLSCRASQTISNNLHWYQQKPGQAPRLLIYSASLAISGIPARFSGSGSGTEFTLTISSLQSEDFAVYYCQQSNSWPNTFGGGTKVEIK
# notes: Human IgG; constant regions not restated; also called VH human v1.0 / VL human v2.0
# B4: TOA-1 variant VH human v2.0 / VL human v1.0 (antibody, V domains shown)
# VH: EVQLVQSGAEVKKPGATVKISCKVSGYSFTAYFMNWVQQAPGKGLEWMGRINPNNGDTFYTQKFKGRVTITADTSTDTAYMELSSLRSEDTAVYYCATRDYFGAMDYWGQGTLVTVSS
# VL: B1 VL
# notes: Human IgG; constant regions not restated; also called hu v2.0 / hu v1.0
# B5: huTOA-1 VH v1.0 / VL v1.3 (antibody, V domains shown)
# VH: B1 VH with T24A, V72R, A79L
# VL: B1 VL with A43S
# notes: Human IgG; constant regions not restated; also called hu v1.0 / hu v1.3
# B6: TOA-1 variant VH human v1.1 / VL human v1.1 (antibody, V domains shown)
# VH: B1 VH
# VL: B1 VL with K42E, A43S, Y49K
# notes: Human IgG; constant regions not restated; also called hu v1.1 / hu v1.1
# B7: TOA-1 variant VH human v2.0 / VL human v1.1 (antibody, V domains shown)
# VH: B4 VH
# VL: B1 VL with K42E, A43S, Y49K
# notes: Human IgG; constant regions not restated; also called hu v2.0 / hu v1.1
# B8: TOA-1 variant VH mouse / VL human v1.1 (antibody, V domains shown)
# VH: B2 VH
# VL: B1 VL with K42E, A43S, Y49K
# notes: Human IgG from COS-1 conditioned medium; constant regions not restated; also called mu / hu v1.1
# B9: TOA-1 variant VH human v1.1 / VL human v2.0 (antibody, V domains shown)
# VH: B1 VH
# VL: B3 VL
# notes: Human IgG; constant regions not restated; also called hu v1.1 / hu v2.0
# B10: huTOA-1 VH v1.0 / VL v1.2 (antibody, V domains shown)
# VH: B1 VH with T24A, V72R, A79L
# VL: B1 VL with K42E
# notes: Human IgG; constant regions not restated; also called hu v1.0 / hu v1.2
# B11: mouse TOA-1 antibody (antibody, mouse IgG1, V domains shown)
# VH: B2 VH
# VL: AIVLIQSPATLSVTPGDSVSLSCRASQTISNNLHWYQQKSHESPRLLIKSASLAISGIPSRFSGSGSGTDFTLSISSVETEDFGMYFCQQSNSWPNTFGGGTKLEIK
# notes: Hybridoma antibody, cloned with mouse IgG1 and mouse Kappa primers; also called muTOA-1; mTOA-1
# B12: chimeric TOA-1 antibody (antibody, V domains shown)
# VH: B2 VH
# VL: B11 VL
# notes: also called chiTOA-1; VH mouse / VL mouse
# B13: TOA-1 variant VH human v2.0 / VL human v2.0 (antibody, V domains shown)
# VH: B4 VH
# VL: B3 VL
# notes: Human IgG; constant regions not restated; also called hu v2.0 / hu v2.0
# B14: BDNF (R&D systems, cat #248-BD) (ligand, human, UniProt P23560 129-247, looked up)
# chain: HSDPARRGELSVCDSISEWVTAADKKTAVDMSGGTVTVLEKVPVSKGQLKQYFYETKCNPMGYTKEGCRGIDKRHWNSQCRTTQSYVRALTMDSKKRIGWRFIRIDTSCVCTLTIKRGR
# Key:
# [1] = target: T1, rhTrkB-ECD (R&D #397-TR/CF) (human, UniProt Q16620 32-430); test: competition ELISA on coated rhTrkB-ECD; competitor biotinylated chimeric TOA-1 at 25 ng/ml
# T1 construct: extracellular domain; Bought protein; also called human TrkB-extracellular domain protein; human TrkB ectodomain protein
# T1 sequence (Q16620 32-430): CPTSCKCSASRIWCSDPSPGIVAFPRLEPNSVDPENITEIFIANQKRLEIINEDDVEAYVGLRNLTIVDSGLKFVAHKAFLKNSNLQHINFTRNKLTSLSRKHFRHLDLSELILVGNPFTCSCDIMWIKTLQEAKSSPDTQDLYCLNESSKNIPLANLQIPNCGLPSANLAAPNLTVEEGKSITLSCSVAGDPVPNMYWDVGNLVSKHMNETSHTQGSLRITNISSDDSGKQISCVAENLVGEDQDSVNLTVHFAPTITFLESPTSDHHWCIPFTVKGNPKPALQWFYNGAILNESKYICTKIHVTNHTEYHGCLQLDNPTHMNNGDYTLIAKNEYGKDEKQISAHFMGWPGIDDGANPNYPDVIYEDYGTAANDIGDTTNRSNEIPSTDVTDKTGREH
# [2] = target: T1, rhTrkB-ECD (R&D #397-TR/CF); test: SPR (Biacore), TrkB ectodomain immobilised on CM5, antibody injected
# [3] = target: T2, Mouse TrkB ectodomain protein (R&D #1494-TB/CF) (mouse, UniProt P15209 32-429); test: as above
# T2 construct: extracellular domain; Bought protein; also called mouse TrkB-extracellular domain protein
# T2 sequence (P15209 32-429): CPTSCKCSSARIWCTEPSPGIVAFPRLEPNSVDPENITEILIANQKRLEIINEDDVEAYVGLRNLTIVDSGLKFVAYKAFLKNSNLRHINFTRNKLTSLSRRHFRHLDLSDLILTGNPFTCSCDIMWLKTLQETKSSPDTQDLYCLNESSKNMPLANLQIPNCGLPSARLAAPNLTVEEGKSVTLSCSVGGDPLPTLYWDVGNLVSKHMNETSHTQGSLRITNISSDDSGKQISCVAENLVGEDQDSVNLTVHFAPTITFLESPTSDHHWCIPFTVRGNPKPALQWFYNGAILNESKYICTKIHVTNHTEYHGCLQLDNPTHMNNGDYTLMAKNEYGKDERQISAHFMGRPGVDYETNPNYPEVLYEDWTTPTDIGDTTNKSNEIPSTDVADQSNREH
# [4] = target: T1, rhTrkB-ECD (R&D #397-TR/CF); test: competition ELISA: plate coated with rhTrkB-ECD; biotinylated chimeric TOA-1 at 25 ng/ml mixed with the unlabeled antibody; streptavidin-HRP
# [5] = target: T3, mouse TrkB (nm_001025074) on HEK293 cells (mouse, UniProt P15209 32-821); test: cell-based ELISA on transfected 293 cells
# T3 construct: whole, on cells; also called rmuTrkB-CRE
# T3 sequence (P15209 32-821): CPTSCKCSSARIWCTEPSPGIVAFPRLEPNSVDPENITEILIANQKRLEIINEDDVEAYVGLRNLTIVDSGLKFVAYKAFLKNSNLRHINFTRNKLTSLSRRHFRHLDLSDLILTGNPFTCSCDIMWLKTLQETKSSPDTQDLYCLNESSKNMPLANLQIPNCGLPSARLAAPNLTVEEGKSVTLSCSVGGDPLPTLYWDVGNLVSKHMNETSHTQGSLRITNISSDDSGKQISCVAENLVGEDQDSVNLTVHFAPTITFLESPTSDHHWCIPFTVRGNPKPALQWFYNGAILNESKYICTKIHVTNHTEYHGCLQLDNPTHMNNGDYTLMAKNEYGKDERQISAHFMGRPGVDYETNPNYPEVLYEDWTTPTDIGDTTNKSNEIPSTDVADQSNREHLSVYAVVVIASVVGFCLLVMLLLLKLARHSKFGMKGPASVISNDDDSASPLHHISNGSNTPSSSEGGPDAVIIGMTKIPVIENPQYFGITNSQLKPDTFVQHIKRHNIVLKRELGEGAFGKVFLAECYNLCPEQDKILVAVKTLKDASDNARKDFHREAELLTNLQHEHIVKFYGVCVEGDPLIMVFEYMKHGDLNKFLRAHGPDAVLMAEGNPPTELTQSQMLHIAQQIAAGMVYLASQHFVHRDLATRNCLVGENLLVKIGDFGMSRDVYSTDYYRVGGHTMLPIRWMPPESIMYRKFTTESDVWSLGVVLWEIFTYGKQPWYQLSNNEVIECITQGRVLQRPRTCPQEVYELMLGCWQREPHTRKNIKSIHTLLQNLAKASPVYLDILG
# [6] = target: T4, TrkB, Cat (Felis domesticus) on 293 cells (cat (Felis domesticus)); test: cell-based ELISA on transfected 293 cells
# T4 construct: Whole entry with signal peptide; also called cat TrkB
# T4 sequence (chain, as listed by the source limits assumed): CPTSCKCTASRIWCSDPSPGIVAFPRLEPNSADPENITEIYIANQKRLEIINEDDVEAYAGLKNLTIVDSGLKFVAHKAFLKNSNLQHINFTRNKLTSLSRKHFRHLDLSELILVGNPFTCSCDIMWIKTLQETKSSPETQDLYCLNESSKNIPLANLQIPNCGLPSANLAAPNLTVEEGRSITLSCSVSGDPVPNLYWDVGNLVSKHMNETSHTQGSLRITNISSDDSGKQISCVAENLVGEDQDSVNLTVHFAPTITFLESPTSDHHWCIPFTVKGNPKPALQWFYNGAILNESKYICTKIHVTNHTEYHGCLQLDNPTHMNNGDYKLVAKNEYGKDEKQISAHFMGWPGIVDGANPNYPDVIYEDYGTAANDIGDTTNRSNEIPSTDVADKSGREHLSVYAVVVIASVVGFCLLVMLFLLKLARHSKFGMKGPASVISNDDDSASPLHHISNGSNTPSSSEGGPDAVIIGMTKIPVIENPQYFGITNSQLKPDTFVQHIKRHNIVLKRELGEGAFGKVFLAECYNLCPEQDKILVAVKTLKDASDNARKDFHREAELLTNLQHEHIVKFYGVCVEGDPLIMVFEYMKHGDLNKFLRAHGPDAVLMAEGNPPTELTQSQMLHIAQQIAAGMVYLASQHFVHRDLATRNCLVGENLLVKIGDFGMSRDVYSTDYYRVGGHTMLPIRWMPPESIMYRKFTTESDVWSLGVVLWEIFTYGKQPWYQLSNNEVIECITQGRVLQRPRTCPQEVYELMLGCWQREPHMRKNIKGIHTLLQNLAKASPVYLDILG
# [7] = target: T5, recombinant human TrkA-Fc (rhTrkA-ECD, R&D system, 175-TK) (human, UniProt P04629 33-423); test: direct binding ELISA: plate coated with rhTrkA-ECD (Fc chimera) at 5 ug/ml, biotinylated antibody, streptavidin-HRP
# T5 construct: extracellular domain; Bought protein; not shown: Fc part, not described
# T5 sequence (P04629 33-423): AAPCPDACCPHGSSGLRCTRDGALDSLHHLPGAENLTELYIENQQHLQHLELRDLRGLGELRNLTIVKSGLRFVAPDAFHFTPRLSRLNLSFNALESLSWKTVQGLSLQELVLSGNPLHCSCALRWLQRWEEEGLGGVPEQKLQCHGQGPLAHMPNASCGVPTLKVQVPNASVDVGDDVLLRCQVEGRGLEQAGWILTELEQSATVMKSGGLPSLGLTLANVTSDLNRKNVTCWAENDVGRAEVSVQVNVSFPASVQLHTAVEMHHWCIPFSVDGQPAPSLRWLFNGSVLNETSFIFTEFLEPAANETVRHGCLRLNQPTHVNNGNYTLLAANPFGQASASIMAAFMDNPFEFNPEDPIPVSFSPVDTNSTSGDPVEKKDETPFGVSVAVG
# [8] = target: T6, recombinant human TrkC-Fc (rhTrkC-ECD, R&D system, 373-TC/TF) (human, UniProt Q16288 32-429); test: direct binding ELISA: plate coated with rhTrkC-ECD (Fc chimera) at 5 ug/ml, biotinylated antibody, streptavidin-HRP
# T6 construct: extracellular domain; Bought protein; not shown: Fc part, not described
# [9] = target: Human TrkA, NP_002520, cell-surface expressed on transfected 293 cells (human, UniProt P04629 33-796); test: cell-based ELISA on transfected 293 cells, HRP-conjugated secondary antibody, TMB, OD450
# Chain of Human TrkA, NP_002520, cell-surface expressed on transfected 293 cells (P04629 33-796 limits assumed): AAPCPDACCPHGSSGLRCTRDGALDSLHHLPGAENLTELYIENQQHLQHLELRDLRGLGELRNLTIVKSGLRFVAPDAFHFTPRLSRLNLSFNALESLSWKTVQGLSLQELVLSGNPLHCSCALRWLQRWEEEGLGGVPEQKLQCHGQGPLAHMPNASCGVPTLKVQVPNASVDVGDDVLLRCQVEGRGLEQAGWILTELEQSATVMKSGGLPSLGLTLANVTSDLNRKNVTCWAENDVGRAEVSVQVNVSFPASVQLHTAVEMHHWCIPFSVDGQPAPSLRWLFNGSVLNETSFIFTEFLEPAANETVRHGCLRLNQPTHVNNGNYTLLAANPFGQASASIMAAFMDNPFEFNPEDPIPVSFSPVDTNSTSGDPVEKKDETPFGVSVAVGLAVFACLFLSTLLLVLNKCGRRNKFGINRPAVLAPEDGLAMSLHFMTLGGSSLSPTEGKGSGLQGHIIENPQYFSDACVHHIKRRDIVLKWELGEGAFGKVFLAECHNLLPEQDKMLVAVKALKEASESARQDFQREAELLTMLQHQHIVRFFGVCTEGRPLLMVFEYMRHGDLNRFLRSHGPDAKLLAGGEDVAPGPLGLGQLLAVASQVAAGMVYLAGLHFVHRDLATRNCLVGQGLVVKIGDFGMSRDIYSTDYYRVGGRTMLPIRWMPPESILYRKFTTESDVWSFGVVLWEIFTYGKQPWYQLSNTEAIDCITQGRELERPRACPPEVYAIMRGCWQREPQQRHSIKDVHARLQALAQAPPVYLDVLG
# Chimeric TrkA (d4TrkB) = target: T7, Chimeric TrkA (d4TrkB) (human); test: as above
# T7 construct: TrkA residues 187-281 replaced by TrkB residues 190-282
# Chimeric TrkB (d5TrkA) = target: T8, Chimeric TrkB (d5TrkA) (human, UniProt Q16620 32-822); test: as above
# T8 construct: TrkB residues 284-377 replaced by TrkA residues 280-377
# [10] = target: hTrkB-a isoform fused to a small peptide epitope, in U2OS cells (Discoverx Pathhunter) (human, UniProt Q16620 32-822); test: cell-based or functional assay
# Chain of hTrkB-a isoform fused to a small peptide epitope, in U2OS cells (Discoverx Pathhunter) (Q16620 32-430): as the sequence (Q16620 32-430) above
# [11] = target: hTrkC in the SHC1 recruitment assay (U2OS, Discoverx Pathhunter) (human, UniProt Q16288 32-839); test: cell-based or functional assay
# [12] = target: human TrkB (open reading frame from nm_006180) on HEK293 cells (human, UniProt Q16620 32-822); test: cell-based or functional assay
# Chain of human TrkB (open reading frame from nm_006180) on HEK293 cells (Q16620 32-822): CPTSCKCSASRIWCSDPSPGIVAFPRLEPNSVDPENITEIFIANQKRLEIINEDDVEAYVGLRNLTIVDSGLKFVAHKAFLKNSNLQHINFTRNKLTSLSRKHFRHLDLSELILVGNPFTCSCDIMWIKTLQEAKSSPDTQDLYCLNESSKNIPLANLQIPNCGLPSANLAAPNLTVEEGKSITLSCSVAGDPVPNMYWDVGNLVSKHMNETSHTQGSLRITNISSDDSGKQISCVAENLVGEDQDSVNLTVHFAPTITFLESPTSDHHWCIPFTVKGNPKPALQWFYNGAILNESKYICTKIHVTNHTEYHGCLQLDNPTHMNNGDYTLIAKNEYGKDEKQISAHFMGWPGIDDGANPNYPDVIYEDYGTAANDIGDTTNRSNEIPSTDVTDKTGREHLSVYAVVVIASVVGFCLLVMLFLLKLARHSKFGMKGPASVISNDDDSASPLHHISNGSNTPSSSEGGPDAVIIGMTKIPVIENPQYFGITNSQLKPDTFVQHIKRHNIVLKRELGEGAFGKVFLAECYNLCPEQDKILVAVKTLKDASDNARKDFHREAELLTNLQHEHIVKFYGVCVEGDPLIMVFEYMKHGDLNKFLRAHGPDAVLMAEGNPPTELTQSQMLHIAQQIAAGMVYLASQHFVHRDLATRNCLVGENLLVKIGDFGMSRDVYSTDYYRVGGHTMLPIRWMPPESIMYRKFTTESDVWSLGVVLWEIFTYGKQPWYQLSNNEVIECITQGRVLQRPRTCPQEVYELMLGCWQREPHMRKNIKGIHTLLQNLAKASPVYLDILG
binder,measurement,setting,value
B1,IC50,[1],13.6 nM
B2,IC50,[1],16.3 nM
B3,Kd,[2],16.5 nM
same,Kd,[3],20.9 nM
same,IC50,[1],5.9 nM
B4,IC50,[1],~126 nM
B5,IC50 (read off the curve),[4],~9 nM
B6,IC50,[1],10.1 nM
B7,IC50,[1],~87.6 nM
B8,IC50,[1],13.6 nM
B9,IC50,[1],10.7 nM
B10,IC50 (read off the curve),[4],~9 nM
B11,Kd,[2],14.7 nM
same,Kd,[3],16.3 nM
same,EC50,[5],0.4 nM
same,EC50,[6],0.23 nM
same,binding result,[7],no binding (tested: about 6.7 nM)
same,binding result,[8],no binding (tested: about 6.7 nM)
same,binding result,[9],no binding (tested: 10.00 ug/ml)
same,binding result,Chimeric TrkA (d4TrkB),no binding (tested: 10.00 ug/ml)
same,binding result,Chimeric TrkB (d5TrkA),no binding (tested: 1.0000 ug/ml)
B12,Kd,[2],12.1 nM
same,Kd,[3],17 nM
same,IC50,[1],3.6 nM
B13,IC50,[1],~37.8 nM
B14,"EC50, SHC1 recruitment assay",[10],1.02 nM
same,"EC50, SHC1 recruitment assay",[11],5.45 nM
same,"Cre-luciferase reporter, EC50 (FIG. 38)",[12],5.2 nM
